T1: mFz: Fz domain and C-terminal flanking sequence of mouse MuSK (D307 to T494) with C-terminal Avi- and … (mouse, UniProt Q61006 307-494, limits assumed, biotinylated in vitro using the BirA enzyme)
T1 construct: also called mouse Fz; not shown: Avi- and His6-tags
T1 sequence (looked up): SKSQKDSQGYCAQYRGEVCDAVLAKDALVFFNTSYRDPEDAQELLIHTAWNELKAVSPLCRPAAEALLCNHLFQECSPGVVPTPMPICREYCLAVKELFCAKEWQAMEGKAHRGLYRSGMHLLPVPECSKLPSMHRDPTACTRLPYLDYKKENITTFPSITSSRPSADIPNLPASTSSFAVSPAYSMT

T2: hECD: full-length extracellular region of human MuSK (E22 to T495) with C-terminal Avi- and His6-tags (human, UniProt O15146 22-495, biotinylated in vitro using the BirA enzyme)
T2 construct: also called human ECD; not shown: Avi- and His6-tags
T2 sequence: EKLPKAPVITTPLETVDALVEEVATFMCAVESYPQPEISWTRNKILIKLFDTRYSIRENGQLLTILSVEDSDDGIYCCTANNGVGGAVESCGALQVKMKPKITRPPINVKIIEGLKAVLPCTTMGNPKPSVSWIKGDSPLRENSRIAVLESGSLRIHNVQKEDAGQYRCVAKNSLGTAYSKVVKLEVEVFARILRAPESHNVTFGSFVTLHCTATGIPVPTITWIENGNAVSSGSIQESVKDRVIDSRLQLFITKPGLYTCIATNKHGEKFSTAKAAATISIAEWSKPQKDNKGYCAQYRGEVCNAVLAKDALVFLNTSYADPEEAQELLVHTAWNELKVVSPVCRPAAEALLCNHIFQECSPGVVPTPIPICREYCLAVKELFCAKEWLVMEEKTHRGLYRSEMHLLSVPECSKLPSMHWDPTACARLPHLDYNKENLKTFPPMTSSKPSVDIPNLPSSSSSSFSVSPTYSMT

T3: mECD: full-length extracellular region of mouse MuSK (E22 to T494) with C-terminal Avi- and His6-tags (mouse, UniProt Q61006 22-494, biotinylated in vitro using the BirA enzyme)
T3 construct: range 22-494; also called mouse ECD; not shown: Avi- and His6-tags
T3 sequence (looked up): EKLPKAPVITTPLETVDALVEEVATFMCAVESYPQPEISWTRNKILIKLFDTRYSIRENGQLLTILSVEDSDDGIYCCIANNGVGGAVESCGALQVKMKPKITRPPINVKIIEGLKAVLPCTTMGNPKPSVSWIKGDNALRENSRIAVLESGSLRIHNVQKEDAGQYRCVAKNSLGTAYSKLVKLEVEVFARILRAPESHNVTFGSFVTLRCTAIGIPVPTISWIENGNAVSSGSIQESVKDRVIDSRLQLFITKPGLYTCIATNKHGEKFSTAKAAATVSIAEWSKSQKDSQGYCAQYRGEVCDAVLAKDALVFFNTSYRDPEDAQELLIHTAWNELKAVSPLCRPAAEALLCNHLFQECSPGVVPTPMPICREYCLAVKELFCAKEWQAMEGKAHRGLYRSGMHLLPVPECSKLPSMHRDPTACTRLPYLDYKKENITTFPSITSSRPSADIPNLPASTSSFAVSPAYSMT

T4: hFz: Fz domain and C-terminal flanking sequence of human MuSK (K314-T495) with C-terminal Avi- and His6-tags (human, UniProt O15146 314-495, biotinylated in vitro using the BirA enzyme)
T4 construct: also called human Fz; not shown: Avi- and His6-tags
T4 sequence: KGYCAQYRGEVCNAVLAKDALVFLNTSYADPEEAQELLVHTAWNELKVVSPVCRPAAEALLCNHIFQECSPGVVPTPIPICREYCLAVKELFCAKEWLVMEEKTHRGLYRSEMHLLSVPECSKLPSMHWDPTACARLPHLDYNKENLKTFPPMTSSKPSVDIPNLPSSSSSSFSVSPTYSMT

T5: mouse MuSK (mouse, UniProt Q61006 22-494, limits assumed)
T5 construct: Coated on ELISA plates or on the Biacore chip; also called full length mouse MuSK; mouse MuSK (in house produced in HEK293 cells)
T5 sequence (looked up): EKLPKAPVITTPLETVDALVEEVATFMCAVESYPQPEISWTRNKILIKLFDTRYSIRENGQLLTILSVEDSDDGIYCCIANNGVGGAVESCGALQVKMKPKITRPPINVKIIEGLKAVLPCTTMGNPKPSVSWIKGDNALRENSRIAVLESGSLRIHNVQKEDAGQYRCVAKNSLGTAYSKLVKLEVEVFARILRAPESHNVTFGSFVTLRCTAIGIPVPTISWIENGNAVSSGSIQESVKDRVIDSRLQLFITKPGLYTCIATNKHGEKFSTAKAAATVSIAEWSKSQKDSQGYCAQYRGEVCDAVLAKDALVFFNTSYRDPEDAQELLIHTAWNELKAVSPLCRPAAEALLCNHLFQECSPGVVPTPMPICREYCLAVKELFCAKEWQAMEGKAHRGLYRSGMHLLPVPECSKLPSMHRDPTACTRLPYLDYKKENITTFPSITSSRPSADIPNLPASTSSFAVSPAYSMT

T6: rat MuSK (rat, UniProt Q62838 22-494, limits assumed)
T6 construct: Coated on Biacore chip (200RU) or ELISA plate
T6 sequence (looked up): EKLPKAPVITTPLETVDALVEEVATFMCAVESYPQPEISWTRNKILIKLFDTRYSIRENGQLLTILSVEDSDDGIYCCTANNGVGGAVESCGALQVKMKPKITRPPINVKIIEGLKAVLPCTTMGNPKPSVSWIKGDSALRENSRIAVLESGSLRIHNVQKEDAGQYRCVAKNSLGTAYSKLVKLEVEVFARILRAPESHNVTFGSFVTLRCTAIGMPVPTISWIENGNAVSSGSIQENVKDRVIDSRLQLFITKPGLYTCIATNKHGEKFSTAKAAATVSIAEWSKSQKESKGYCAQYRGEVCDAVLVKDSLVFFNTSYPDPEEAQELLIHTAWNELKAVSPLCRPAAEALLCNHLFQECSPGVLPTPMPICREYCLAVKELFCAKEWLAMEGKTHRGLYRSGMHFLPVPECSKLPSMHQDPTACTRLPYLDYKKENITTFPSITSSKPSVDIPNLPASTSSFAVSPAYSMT


Assays:
[1] = biological target: T1, mFz: Fz domain and C-terminal flanking …; test: bead-binding assay, Fab format: biotinylated antigen on streptavidin beads, flow cytometry, 1:1 fit; average ± s.d., n=3
[2] = biological target: T2, hECD: full-length extracellular region …; test: as above
[3] = biological target: T3, mECD: full-length extracellular region …; test: as above
[4] = biological target: T4, hFz: Fz domain and C-terminal flanking …; test: as above
cynomolgus monkey MuSK [5] = biological target: T7, cynomolgus monkey MuSK (cynomolgus monkey, UniProt A0A2K5USF6 24-487); test: Biacore, MuSK on chip, association pH 7.4, dissociation pH 5.5
T7 sequence (A0A2K5USF6 entry or part of it): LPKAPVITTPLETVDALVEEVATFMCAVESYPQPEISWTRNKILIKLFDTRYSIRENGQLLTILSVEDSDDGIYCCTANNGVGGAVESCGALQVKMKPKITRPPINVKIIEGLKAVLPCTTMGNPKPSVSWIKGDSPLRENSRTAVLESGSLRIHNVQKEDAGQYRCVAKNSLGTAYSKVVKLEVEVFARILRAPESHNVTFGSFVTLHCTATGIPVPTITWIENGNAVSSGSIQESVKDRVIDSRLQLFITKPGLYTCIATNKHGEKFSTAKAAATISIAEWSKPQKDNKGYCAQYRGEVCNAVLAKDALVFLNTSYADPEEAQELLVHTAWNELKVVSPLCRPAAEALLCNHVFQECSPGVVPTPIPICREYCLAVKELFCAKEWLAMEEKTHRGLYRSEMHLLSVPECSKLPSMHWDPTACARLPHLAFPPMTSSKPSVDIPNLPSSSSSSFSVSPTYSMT
Experimental: (§1) For affinity determination, a CMS chip was coated with cynomolgus monkey, rat and mouse MuSK (200RU) and 66.7 nM of antibody was applied and kinetic parameters calculated (Table 8). The following conclusions could be drawn: (1) 3B2g1m3 and 3B2g2m3 (m3 variants) show significant drop in affinity for MuSK for all species tested; (2) 3B2g1m2 and 3B2g2m2 (m2 variants) show some drop in affinity for MuSK; (3) 3B2g1m1, 3B2g2m1, 3B2g1m4, 3B2g2m4 (ml and m4 variants) show no drop in affinity for MuSK for all species tested; and (4) for all clones there is no difference between g1 and g2 variants (VL methionine versus serine in CDR3).
(§2) In order to study pH dependent binding of our antibodies to MuSK, the same Biacore was used as above, but now dissociation was done at pH 5.5 instead of pH 7.4. […] The following conclusions could be drawn for the different variants: (1) 3B2g1m3 and 3B2g2m3 (m3 variants) show significant drop in affinity for MuSK for all species tested; (2) 3B2g1m2 and 3B2g2m2 (m2 variants) show some drop in affinity for MuSK; (3) 3B2g1m1, 3B2g2m1, 3B2g1m4, 3B2g2m4 (m1 and m4 variants) show no drop in affinity for MuSK for all species tested; and (4) for all clones there is no difference between g1 and g2 variants (VL methionine versus serine in CDR3).

mouse MuSK [6] = biological target: T5, mouse MuSK; test: as above
Experimental: as §1, §2

rat MuSK [7] = biological target: T6, rat MuSK; test: as above
Experimental: as §1, §2

cynomolgus monkey MuSK [8] = biological target: T7, cynomolgus monkey MuSK; test: Biacore, MuSK on chip (200RU), 66.7 nM mAb, dissociation pH 7.4
Experimental: as §1

mouse MuSK [9] = biological target: T5, mouse MuSK; test: as above
Experimental: as §1

rat MuSK [10] = biological target: T6, rat MuSK; test: as above
Experimental: as §1

Binder	Kd [1] [nM]	Kd [2] [nM]	Kd [3] [nM]	Kd [4] [nM]	R0 (cynomolgus monkey MuSK [5]) [RU]	koff (cynomolgus monkey MuSK [5]) [s⁻¹]	kon (cynomolgus monkey MuSK [5]) [M⁻¹ s⁻¹]	R0 (mouse MuSK [6]) [RU]	koff (mouse MuSK [6]) [s⁻¹]	kon (mouse MuSK [6]) [M⁻¹ s⁻¹]	R0 (rat MuSK [7]) [RU]	koff (rat MuSK [7]) [s⁻¹]	kon (rat MuSK [7]) [M⁻¹ s⁻¹]	R0 (cynomolgus monkey MuSK [8]) [RU]	koff (cynomolgus monkey MuSK [8]) [s⁻¹]	kon (cynomolgus monkey MuSK [8]) [M⁻¹ s⁻¹]	R0 (mouse MuSK [9]) [RU]	koff (mouse MuSK [9]) [s⁻¹]	kon (mouse MuSK [9]) [M⁻¹ s⁻¹]	R0 (rat MuSK [10]) [RU]	also measured
X8 Fab (Fab, V domains shown, also called Fab Clone X8) VH: EVQLVESGGGLVQPGGSLRLSCAASGFTVSSSSIHWVRQAPGKGLEWVASISSSSGSTSYADSVKGRFTISADTSKNTAYLQMNSLRAEDTAVYYCARSWSYHPWYYHVGWYTGLDYWGQGTLVTVSS VL: DIQMTQSPSSLSASVGDRVTITCRASQSVSSAVAWYQQKPGKAPKLLIYSASSLYSGVPSRFSGSRSGTDFTLTISSLQPEDFATYYCQQSSSSLITFGQGTKVEIK	4.7	1.69	44	1.4	–	–	–	–	–	–	–	–	–	–	–	–	–	–	–	–	–
3B2g2m1 (antibody, human IgG1, V domains shown, human IgG1-LALA backbone; produced in HEK293 cells; also called MuSK agonist antibody 3B2g2m1; MuSK-mAb 3B2g2m1) VH: EVQLLESGGGLVQPGGSLRLSCAASGFTFSDYGMSWVRQAPGKGLEWVSAIPWSGGSTYYKESVKGRFTISRDNSKNTLYLQMNSLRAEDTAVYYCAKRSGRIAFGALDAWGQGTLVTVSS VL: QTVVTQEPSFSVSPGGTVTLTCGLSSGSVTSSNYPDWYQQTPGQAPRTLIYSTDSRHSGVPDRFSGSILGNKAALTITGAQADDESDYYCGLYSYSGSKNYVFGGGTKLTVL	–	–	–	–	151	0.00288	850000	193	0.00339	1.18e+06	174	0.00555	1.15e+06	144	0.00109	890000	195	0.00104	1.32e+06	160	koff (rat MuSK [10]): 0.00193 s⁻¹; kon (rat MuSK [10]): 1.4e+06 M⁻¹ s⁻¹
3B2g1m1 (antibody, human IgG1, V domains shown, human IgG1-LALA backbone; produced in HEK293 cells) VH: EVQLLESGGGLVQPGGSLRLSCAASGFTFSDYGMSWVRQAPGKGLEWVSAIPWSGGSTYYKESVKGRFTISRDNSKNTLYLQMNSLRAEDTAVYYCAKRSGRIAFGALDAWGQGTLVTVSS VL: QTVVTQEPSFSVSPGGTVTLTCGLSSGSVTSSNYPDWYQQTPGQAPRTLIYSTDSRHSGVPDRFSGSILGNKAALTITGAQADDESDYYCGLYMYSGSKNYVFGGGTKLTVL	–	–	–	–	147	0.0029	810000	192	0.00339	1.19e+06	166	0.00595	1.16e+06	143	0.00117	840000	193	0.0011	1.25e+06	157	koff (rat MuSK [10]): 0.00192 s⁻¹; kon (rat MuSK [10]): 1.32e+06 M⁻¹ s⁻¹
X7 Fab (Fab, V domains shown, also called Fab Clone X7) VH: EVQLVESGGGLVQPGGSLRLSCAASGFTLYSSSIHWVRQAPGKGLEWVASISSSYSSTYYADSVKGRFTISADTSKNTAYLQMNSLRAEDTAVYYCARLAGLYHYPGYLGLDYWGQGTLVTVSS VL: DIQMTQSPSSLSASVGDRVTITCRASQSVSSAVAWYQQKPGKAPKLLIYSASSLYSGVPSRFSGSRSGTDFTLTISSLQPEDFATYYCQQSSRSSLLTFGQGTKVEIK	12	6	16.2	4.5	–	–	–	–	–	–	–	–	–	–	–	–	–	–	–	–	–
